Measured values reported in publication PMC5645412, “AUNIP/C1orf135 directs DNA double-strand breaks towards the homologous recombination repair pathway” (Nature Communications, 2017).

Legend:
MBP-tagged CtIP = molecular target: T1, MBP-tagged CtIP (UniProt Q99708 1-897); test: pull-down; GST or GST-AUNIP (wild type or mutant) on glutathione-Sepharose incubated with MBP-CtIP in NETN buffer, 2 h at 4 °C; five washes; CtIP detected by monoclonal anti-CtIP antibody; settings: both partners purified
T1 construct: CtIP; also called MBP-CtIP; source: E. coli BL21, purified (Amylose resin, eluted with maltose)

MBP-AUNIP Δ25-70 = molecular target: T2, MBP-AUNIP Δ25-70 (UniProt Q9H7T9 1-357, del25-70); test: EMSA; 10 mM MgCl2; up to 200 nM protein; 20 nM biotin-DNA, 0-200 nM protein, 1x LightShift binding buffer with 10 mM MgCl2, 2.5% glycerol, 0.05% NP-40, 20 min, room temperature; 10% native PAGE; pH and salt not given; settings: protein: recombinant; label: 5'-biotin on oligo 1; fork; 31 bp duplex, two 28 nt arms (3' arm of oligo 1, 5' arm of oligo 2)
T2 sequence: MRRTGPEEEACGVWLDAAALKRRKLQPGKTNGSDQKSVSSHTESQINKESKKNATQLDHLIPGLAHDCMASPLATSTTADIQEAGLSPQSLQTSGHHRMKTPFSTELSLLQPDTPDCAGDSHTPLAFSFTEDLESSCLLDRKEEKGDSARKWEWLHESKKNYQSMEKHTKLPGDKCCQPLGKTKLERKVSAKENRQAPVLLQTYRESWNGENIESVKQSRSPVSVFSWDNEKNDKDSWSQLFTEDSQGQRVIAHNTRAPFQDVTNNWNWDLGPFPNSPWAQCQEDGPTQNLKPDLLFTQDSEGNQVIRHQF

MBP-AUNIP = molecular target: T3, MBP-AUNIP (UniProt Q9H7T9 1-357); test: EMSA; 10 mM MgCl2; 20 nM biotin-DNA, 0-200 nM protein, 1x LightShift binding buffer with 10 mM MgCl2, 2.5% glycerol, 0.05% NP-40, 20 min, room temperature; 10% native PAGE; pH and salt not given; settings: protein: recombinant, label: 5'-biotin on oligo 1
T3 sequence: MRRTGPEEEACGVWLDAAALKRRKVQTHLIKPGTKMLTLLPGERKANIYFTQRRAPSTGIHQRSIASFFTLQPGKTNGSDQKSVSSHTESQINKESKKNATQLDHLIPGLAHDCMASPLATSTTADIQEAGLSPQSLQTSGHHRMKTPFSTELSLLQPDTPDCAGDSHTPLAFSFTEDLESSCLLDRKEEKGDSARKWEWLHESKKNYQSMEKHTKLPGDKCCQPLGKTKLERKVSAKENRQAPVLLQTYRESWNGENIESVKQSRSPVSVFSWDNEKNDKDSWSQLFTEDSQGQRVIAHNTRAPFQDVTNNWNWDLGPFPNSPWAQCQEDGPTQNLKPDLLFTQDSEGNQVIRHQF

T1 sequence (Q99708 whole entry): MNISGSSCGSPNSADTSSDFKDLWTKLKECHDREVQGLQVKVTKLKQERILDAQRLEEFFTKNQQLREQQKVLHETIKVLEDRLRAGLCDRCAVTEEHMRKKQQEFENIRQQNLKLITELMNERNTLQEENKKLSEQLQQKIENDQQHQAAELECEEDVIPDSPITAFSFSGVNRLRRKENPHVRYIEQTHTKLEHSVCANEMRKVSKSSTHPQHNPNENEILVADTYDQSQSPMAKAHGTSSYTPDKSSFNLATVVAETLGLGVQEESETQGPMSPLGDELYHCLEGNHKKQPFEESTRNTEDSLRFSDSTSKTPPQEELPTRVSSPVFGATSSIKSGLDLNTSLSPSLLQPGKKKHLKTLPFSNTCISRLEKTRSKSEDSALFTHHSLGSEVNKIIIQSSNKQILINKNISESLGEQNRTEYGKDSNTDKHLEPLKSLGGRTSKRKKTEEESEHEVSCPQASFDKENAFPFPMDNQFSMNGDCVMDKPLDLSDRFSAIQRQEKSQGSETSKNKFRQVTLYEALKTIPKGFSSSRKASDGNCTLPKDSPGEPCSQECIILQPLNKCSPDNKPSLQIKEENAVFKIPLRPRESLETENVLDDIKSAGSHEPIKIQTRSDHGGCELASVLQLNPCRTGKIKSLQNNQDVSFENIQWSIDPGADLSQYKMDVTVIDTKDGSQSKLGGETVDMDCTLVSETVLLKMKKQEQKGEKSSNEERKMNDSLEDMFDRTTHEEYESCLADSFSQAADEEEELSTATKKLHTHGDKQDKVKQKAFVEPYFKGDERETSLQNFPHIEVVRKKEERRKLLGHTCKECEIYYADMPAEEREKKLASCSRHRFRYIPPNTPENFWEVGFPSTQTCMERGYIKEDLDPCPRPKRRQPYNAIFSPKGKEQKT

B1: GST-tagged AUNIP (wild-type) (natural protein, human, UniProt Q9H7T9 1-357, looked up)
chain: MRRTGPEEEACGVWLDAAALKRRKVQTHLIKPGTKMLTLLPGERKANIYFTQRRAPSTGIHQRSIASFFTLQPGKTNGSDQKSVSSHTESQINKESKKNATQLDHLIPGLAHDCMASPLATSTTADIQEAGLSPQSLQTSGHHRMKTPFSTELSLLQPDTPDCAGDSHTPLAFSFTEDLESSCLLDRKEEKGDSARKWEWLHESKKNYQSMEKHTKLPGDKCCQPLGKTKLERKVSAKENRQAPVLLQTYRESWNGENIESVKQSRSPVSVFSWDNEKNDKDSWSQLFTEDSQGQRVIAHNTRAPFQDVTNNWNWDLGPFPNSPWAQCQEDGPTQNLKPDLLFTQDSEGNQVIRHQF
notes: AUNIP/C1orf135, human; pCold vectors may add further N-terminal vector residues; also called GST-AUNIP; recombinant GST-AUNIP; source: E. coli BL21, purified on glutathione-Sepharose resin (kept on the beads)
binding result (MBP-tagged CtIP): binds

B2: GST-tagged AUNIP C-terminal region (281-357) (domain or fragment, human, UniProt Q9H7T9 281-357, looked up)
chain: KDSWSQLFTEDSQGQRVIAHNTRAPFQDVTNNWNWDLGPFPNSPWAQCQEDGPTQNLKPDLLFTQDSEGNQVIRHQF
notes: source: E. coli BL21, purified on glutathione-Sepharose resin (kept on the beads)
binding result (MBP-tagged CtIP): binds

B3: splayed arm (dsDNA)
DNA 1: GACGCTGCCGAATTCTACCAGTGCCTTGCTAGGACATCTTTGCCCACCTGCAGGTTCAC
DNA 2: ATAGTCGGATCCTCTAGACAGCTCCATGTAGCAAGGCACTGGTAGAATTCGGCAGCGTC
binding result (MBP-AUNIP Δ25-70): no binding | binding result (MBP-AUNIP; fork, 31 bp duplex, two 28 nt arms (3' arm of oligo 1, 5' arm of oligo 2)): binds

B4: 5'-flap (dsDNA)
DNA 1: GACGCTGCCGAATTCTACCAGTGCCTTGCTAGGACATCTTTGCCCACCTGCAGGTTCAC
DNA 2: ATAGTCGGATCCTCTAGACAGCTCCATGTAGCAAGGCACTGGTAGAATTCGGCAGCGTC
DNA 3: GTGAACCTGCAGGTGGGCAAAGATGTCC
binding result (MBP-AUNIP; 1:2 31 bp, 1:3 28 bp, 28 nt 5' flap of strand 2): binds

B5: 3'-flap (dsDNA)
DNA 1: GACGCTGCCGAATTCTACCAGTGCCTTGCTAGGACATCTTTGCCCACCTGCAGGTTCAC
DNA 2: ATAGTCGGATCCTCTAGACAGCTCCATGTAGCAAGGCACTGGTAGAATTCGGCAGCGTC
DNA 3: CATGGAGCTGTCTAGAGGATCCGACTAT
binding result (MBP-AUNIP; 1:2 31 bp, 2:3 28 bp, 28 nt 3' flap of strand 1): binds
